Assay results published in patent US20080044360A1 (COLLAGEN MEDICAL, published 2008).
Bridge positions count the residues as written; N and C are the ends. Square brackets hold non-standard residues; d marks the D form. Primed or numbered codes have the meaning given here. Side chains are listed from the residue outwards. Ends that are not written are not given here. Bpa = N[C@@H](Cc1ccc(C(=O)c2ccccc2)cc1)C(=O)O; Gd^D = GdDOTAGA (gadolinium DOTAGA chelate); Bip = N[C@@H](Cc1ccc(-c2ccccc2)cc1)C(=O)O; Gd^T(3) = GdDTPA attached via thiourea; 1Nal = N[C@@H](Cc1cccc2ccccc12)C(=O)O; 2Nal = N[C@@H](Cc1ccc2ccccc2c1)C(=O)O; Bta = N[C@@H](Cc1csc2ccccc12)C(=O)O; Hyp = O=C(O)[C@@H]1C[C@@H](O)CN1; 2Pal = N[C@@H](Cc1ccccn1)C(=O)O; 4Pal = N[C@@H](Cc1ccncc1)C(=O)O; Gd^G = not defined here; Gd^T = not defined here; Gd^T″ = GdDTPA-thiourea; Dap = NC[C@H](N)C(=O)O; AEEA = NCCOCCOCC(=O)O; Aib = CC(C)(N)C(=O)O

Tests used:
[1] = molecular target: T1, human collagen type I, acid soluble, extracted from placenta (Sigma C7774) (human, UniProt P02452 162-1218; P08123 80-1119); experiment: dried collagen assay
T1 construct: tissue extract, gelled and dried in wells; also called dried human collagen; h-Collagen
T1 sequence (P02452 162-1218 limits assumed, chain 1 of 2): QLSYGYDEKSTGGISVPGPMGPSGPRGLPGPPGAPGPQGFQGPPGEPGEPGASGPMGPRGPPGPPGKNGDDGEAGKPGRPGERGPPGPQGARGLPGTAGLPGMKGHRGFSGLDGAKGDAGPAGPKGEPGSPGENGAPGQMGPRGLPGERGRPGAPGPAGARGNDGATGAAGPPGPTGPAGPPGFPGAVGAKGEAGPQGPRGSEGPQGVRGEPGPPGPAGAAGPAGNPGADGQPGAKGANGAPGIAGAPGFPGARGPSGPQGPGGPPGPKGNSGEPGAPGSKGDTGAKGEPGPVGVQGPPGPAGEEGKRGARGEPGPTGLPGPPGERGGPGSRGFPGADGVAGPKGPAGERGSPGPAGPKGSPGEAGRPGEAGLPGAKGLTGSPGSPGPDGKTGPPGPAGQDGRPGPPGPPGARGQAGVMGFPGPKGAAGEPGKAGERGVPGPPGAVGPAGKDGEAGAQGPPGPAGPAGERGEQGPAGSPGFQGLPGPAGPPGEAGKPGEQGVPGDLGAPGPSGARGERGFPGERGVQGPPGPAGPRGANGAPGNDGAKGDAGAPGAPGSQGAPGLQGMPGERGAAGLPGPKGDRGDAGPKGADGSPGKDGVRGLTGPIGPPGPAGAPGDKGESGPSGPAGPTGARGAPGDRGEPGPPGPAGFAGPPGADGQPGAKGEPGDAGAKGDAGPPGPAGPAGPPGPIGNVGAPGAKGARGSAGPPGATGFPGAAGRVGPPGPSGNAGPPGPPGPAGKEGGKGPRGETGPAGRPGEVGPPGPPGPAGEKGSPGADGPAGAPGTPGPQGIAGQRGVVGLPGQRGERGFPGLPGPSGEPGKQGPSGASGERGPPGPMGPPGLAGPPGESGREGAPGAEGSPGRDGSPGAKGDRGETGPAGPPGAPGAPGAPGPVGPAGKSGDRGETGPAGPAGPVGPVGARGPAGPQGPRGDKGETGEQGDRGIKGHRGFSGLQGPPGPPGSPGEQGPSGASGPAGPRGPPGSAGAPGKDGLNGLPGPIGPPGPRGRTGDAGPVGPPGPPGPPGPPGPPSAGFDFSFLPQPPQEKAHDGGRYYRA
T1 sequence (P08123 80-1119 limits assumed, chain 2 of 2): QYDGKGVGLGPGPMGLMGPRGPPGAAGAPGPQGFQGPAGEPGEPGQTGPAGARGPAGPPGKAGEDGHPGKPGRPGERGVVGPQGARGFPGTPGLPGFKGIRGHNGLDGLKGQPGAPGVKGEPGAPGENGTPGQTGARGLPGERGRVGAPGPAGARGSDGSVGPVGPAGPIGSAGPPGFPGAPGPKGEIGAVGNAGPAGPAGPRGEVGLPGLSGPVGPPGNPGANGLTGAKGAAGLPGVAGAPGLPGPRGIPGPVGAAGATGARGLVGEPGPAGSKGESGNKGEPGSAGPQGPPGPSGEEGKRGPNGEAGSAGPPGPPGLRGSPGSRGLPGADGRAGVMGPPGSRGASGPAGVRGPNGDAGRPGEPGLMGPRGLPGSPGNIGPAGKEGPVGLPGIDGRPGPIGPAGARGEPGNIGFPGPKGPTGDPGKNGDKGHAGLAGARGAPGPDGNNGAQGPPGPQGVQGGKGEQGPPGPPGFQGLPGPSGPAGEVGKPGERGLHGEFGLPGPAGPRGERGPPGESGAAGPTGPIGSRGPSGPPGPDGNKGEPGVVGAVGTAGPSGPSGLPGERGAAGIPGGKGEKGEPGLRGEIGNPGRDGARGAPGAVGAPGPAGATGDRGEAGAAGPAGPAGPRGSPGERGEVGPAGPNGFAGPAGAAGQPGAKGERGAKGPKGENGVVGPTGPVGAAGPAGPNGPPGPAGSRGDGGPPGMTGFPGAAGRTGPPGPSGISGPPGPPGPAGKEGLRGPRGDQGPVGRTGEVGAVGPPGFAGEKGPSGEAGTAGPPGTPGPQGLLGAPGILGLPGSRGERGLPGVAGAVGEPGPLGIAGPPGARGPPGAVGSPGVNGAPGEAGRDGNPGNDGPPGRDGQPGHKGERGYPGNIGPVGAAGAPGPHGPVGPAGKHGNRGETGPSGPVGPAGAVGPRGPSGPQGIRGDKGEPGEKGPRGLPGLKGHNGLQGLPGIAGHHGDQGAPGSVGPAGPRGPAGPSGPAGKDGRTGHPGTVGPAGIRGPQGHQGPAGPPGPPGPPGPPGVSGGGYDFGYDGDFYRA

[2] = molecular target: T2, rat collagen, acid soluble, type I, rat tail (Upstate 08-115) (rat, UniProt P02454 152-1207; P02466 86-1125); experiment: dried collagen assay
T2 construct: tissue extract, gelled and dried in wells; also called dried rat collagen
T2 sequence (P02454 152-1207, chain 1 of 2): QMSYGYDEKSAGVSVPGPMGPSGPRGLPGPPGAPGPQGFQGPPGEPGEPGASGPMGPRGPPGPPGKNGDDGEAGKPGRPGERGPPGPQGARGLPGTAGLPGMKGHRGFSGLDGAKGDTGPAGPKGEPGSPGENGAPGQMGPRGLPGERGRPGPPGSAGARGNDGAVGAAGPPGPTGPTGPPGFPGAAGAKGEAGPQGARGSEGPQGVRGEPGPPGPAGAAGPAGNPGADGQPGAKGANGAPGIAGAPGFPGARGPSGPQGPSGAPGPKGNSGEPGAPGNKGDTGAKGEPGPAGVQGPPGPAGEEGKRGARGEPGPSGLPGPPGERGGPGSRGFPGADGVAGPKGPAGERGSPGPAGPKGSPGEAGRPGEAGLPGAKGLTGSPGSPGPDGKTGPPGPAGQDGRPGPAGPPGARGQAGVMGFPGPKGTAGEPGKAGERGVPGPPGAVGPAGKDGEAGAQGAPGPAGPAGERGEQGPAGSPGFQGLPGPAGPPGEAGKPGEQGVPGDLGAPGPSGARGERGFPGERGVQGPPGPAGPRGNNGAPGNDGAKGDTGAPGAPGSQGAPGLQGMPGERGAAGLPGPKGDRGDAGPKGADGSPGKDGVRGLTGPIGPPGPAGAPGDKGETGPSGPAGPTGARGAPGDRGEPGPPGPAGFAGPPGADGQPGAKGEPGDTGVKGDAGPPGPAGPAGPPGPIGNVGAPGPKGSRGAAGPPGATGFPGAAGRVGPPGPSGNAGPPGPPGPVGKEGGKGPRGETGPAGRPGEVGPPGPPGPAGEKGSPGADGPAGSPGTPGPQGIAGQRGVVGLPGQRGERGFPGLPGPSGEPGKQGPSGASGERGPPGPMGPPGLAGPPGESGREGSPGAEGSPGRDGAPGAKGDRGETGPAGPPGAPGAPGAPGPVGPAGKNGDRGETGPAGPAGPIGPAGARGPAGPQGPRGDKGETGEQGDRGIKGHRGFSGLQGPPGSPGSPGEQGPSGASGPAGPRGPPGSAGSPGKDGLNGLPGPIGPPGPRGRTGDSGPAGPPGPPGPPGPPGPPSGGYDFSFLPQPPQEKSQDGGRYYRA
T2 sequence (P02466 86-1125, chain 2 of 2): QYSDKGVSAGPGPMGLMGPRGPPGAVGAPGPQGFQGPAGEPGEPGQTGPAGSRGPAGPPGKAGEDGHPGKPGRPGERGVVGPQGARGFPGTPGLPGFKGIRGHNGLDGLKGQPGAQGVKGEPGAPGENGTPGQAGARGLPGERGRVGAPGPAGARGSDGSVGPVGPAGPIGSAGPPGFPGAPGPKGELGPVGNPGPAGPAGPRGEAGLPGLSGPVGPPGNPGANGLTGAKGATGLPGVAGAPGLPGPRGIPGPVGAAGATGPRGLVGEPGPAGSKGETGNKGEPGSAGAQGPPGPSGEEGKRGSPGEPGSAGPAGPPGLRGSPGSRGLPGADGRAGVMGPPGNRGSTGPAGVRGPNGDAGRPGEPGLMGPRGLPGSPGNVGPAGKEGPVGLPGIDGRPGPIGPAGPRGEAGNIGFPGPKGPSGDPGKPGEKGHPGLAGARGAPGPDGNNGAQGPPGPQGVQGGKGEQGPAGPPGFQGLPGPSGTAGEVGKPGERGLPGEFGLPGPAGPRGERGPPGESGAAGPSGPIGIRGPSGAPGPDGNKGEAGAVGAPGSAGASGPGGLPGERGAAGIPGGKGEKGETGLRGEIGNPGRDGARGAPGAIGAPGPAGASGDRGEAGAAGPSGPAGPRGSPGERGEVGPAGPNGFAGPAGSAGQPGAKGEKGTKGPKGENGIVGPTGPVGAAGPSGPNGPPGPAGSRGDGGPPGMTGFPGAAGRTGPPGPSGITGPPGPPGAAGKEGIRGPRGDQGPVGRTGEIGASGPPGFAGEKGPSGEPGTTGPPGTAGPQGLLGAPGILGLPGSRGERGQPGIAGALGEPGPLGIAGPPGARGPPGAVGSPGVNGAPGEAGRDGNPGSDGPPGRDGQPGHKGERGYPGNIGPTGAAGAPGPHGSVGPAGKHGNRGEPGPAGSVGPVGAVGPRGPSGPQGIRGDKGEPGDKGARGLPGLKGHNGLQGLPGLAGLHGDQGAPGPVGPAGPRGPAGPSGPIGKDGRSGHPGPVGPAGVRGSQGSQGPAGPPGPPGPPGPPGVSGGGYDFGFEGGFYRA

Row | Binder | % bound [1] | % bound [2]
1 | {Gd^T(3)}-GQWHCTTDFPHHYCL[2Nal]G (disulfide 5-14) [Compound ID 891] | 79% | 70%
2 | {Gd^G}-GQWTCSGDAYTWHCAYE (disulfide 5-14 (inferred); not fully specified (C-terminus); reading uncertain) [Compound ID 820] | 60% | 29%
3 | {Gd^T}-GQWTCSGDEYTWHCNYA (disulfide 5-14 (inferred); not fully specified (C-terminus); reading uncertain) [Compound ID 841] | 51% | 28%
4 | {Gd^T″}-GAWTCSGDEYTWHCNYE (disulfide 5-14 (inferred); not fully specified (C-terminus)) [Compound ID 830] | 26% | 11%
5 | {Gd^T}-GQWTCSGDEYTWHCAYE (disulfide 5-14 (inferred); not fully specified (C-terminus); reading uncertain) [Compound ID 839] | 30% | 11%
6 | GQWTCSGDAYTWHCNYE (disulfide 5-14 (inferred); not fully specified (N-terminus, C-terminus)) [Compound ID 838] | 70% | 61%
7 | {Gd^T″}-GQWHCTTRFPHH[1Nal]CLYG (disulfide 5-14) [Compound ID 867] | 55% | 48%
8 | {Gd^T(3)}-GQWHCTTLFPHH[1Nal]CLYG (disulfide 5-14; not fully specified (C-terminus)) [Compound ID 913] | 78% | 64%
9 | {Gd^T″}-GQWHCTTRFPHHYCLYG[dK](Gd^T″) (disulfide 5-14 (inferred); not fully specified (C-terminus)) [Compound ID 808] | 25% | 19%
10 | {Gd^T″}-GQ[Bta]HCTTRFPHHYCLYG (disulfide 5-14) [Compound ID 868] | 36% | 40%
11 | {Gd^T″}-GQWHCTTRFPHH[Bip]CLYG (disulfide 5-14) [Compound ID 873] | 38% | 33%
12 | {Gd^T″}-GK([Gly-Gd^T″])QWHCTTYFPHHYCLYG (disulfide 6-15 (inferred)) [Compound ID 875] | 64% | 60%
13 | {Gd^T″}-GQ[2Nal]HCTTRFPHHYCLYG (disulfide 5-14) [Compound ID 872] | 41% | 35%
14 | {Gd^T}-GQWHCTTYFPHHYCLYG (disulfide 5-14 (inferred); not fully specified (C-terminus); reading uncertain) [Compound ID 861] | 73% | 79%
15 | {Gd^T″}-GQWHCTTR[Bip]PHHYCLYG (disulfide 5-14) [Compound ID 881] | 19% | 28%
16 | {Gd^T″}-GQWHCTTDFPHHYCL[Bpa]G (disulfide 5-14) [Compound ID 889] | 38% | 19%
17 | {Gd^T}-PPQWHCTTRF[Hyp]HHYCLYG (disulfide 6-15; not fully specified (C-terminus); reading uncertain) [Compound ID 856] | 52% | 42%
18 | {Gd^T″}-GK([Gly-Gd^T″])WHCYTK(Gd^T″)FPYHYCVYY (disulfide 5-14 (inferred)) [Compound ID 1011] | 94% | 93%

Row | Binder | % bound [1] | % bound [2]
19 | {Gd^T″}-GK([Gly-Gd^T″])WHCYTK(Gd^T″)FPHHYCK(Gd^T″)YY (disulfide 5-14 (inferred)) [Compound ID 1013] | 81% | 88%
20 | {Gd^D}-K(Gd^D)K(Gd^D)WHCYTYFPHHYCVYG (disulfide 5-14 (inferred)) [Compound ID 1014] | 72% | 61%
21 | {Gd^T″}-GQWHCTTDFPH[2Pal]YCLYG (disulfide 5-14) [Compound ID 888] | 38% | 30%
22 | {Gd^T}-GQWHCTTR[1Nal]PHHYCLYG (disulfide 5-14; not fully specified (C-terminus); reading uncertain) [Compound ID 860] | 60% | 45%
23 | {Gd^T″}-GQWHCTTD[Bpa]PHHYCLYG (disulfide 5-14) [Compound ID 882] | 0% | 13%
24 | {Gd^T(3)}-GQWHCTTD[2Nal]PHHYCLYG (disulfide 5-14; not fully specified (C-terminus)) [Compound ID 894] | 20% | 15%
25 | {Gd^T}-DWTCSGDEYTWHCNY[Aib] (disulfide 4-13; not fully specified (C-terminus); reading uncertain) [Compound ID 850] | 75% | 67%
26 | {Gd^T″}-GK([Gly-Gd^T″])WHCTTK(Gd^T″)FPHHYCLY[Bip] (disulfide 5-14; not fully specified (C-terminus), also called Comp ID No:800) [Compound ID 800] | 85% | 88%
27 | {Gd^T(3)}-GK([Gly-Gd^T(3)])WHCTTYFPHHYCLY[Bip] (disulfide 5-14) [Compound ID 950] | 78% | 79%
28 | {Gd^T(3)}-K(Gd^T(3))K(Gd^T(3))WHCTTK(Gd^T(3))FPHHYCLY[Bip] (disulfide 5-14 (inferred)) [Compound ID 997] | 53% | 55%
29 | {Gd^T″}-GQWHCTTDFPH[Dap](Gd^T″)YCLYG (disulfide 5-14) [Compound ID 887] | 0% | 16%
30 | {Gd^T″}-GQWHCTTRFPHHYCLYGK(Gd^T″) (disulfide 5-14 (inferred); not fully specified (C-terminus)) [Compound ID 807] | 48% | 45%
31 | {Gd^T″}-GQWTCYGDEYTWYCNYE (disulfide 5-14 (inferred); not fully specified (C-terminus)) [Compound ID 826] | 87% | 71%
32 | {Gd^T}-PPQWHCTTRFPHHYCLYG (disulfide 6-15 (inferred); not fully specified (C-terminus); reading uncertain) [Compound ID 854] | 64% | 56%
33 | {Gd^G}-GQWTCSGDEYTWHCNY (disulfide 5-14 (inferred); not fully specified (C-terminus); reading uncertain) [Compound ID 823] | 53% | 28%
34 | GQWHCTTYFPHHYCLYG-{AEEA-Gd^G} (disulfide 5-14 (inferred); reading uncertain, no N-terminal chelate printed) [Compound ID 874] | 45% | 28%
35 | {Gd^T}-DWTC[4Pal]GDEYTWHCNYE (disulfide 4-13; not fully specified (C-terminus); reading uncertain) [Compound ID 849] | 64% | 42%
